Substitutions are numbered along the chain they refer to.
B1: S1-RBD-R3-T1-D7 Ab (Ab_34) (scFv, V domains shown)
VH: QVQLVQSGVEVKKPGESLKISCKGSGYSFTSYWIGWVRQMPGKGLEWMGIIYPGDSDTRYSPSFQGQVTISADKSISTAYLQWSSLKASDTAMYYCARTTYSYGSFDYWGQGTLVTVSS
VL: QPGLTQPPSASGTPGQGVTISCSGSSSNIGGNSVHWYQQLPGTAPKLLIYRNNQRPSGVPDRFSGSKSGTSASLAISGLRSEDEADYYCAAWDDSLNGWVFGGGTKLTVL
B2: Ab_18 (scFv, V domains shown)
VH: EVQLVQSGGGVVQPGRSLRVSCAASGFSFSRYGMHWVRQAPGKGLEWVAFIRHDGSKKYYADSVEGRFTISRDNSRNTVSLEMNSLRGEDTAVYYCAKDGRLEAALDDWGQGTLVTVSS
VL: NFMLTQPHSMSGSAGKTVTVSCIRSSGSIANNFVQWYQQRPGSAPTTVIYEDNQRPSGVPDRFSGSIDSSSNSASLTISGLKTEDEADYYCQSYDSSNLVFGGGTRLTVL
B3: RBD-R3-E1-A5 Ab (Ab_30) (scFv, V domains shown)
VH: QVQLVQSGGGVVQPGKSLRLSCTASGFTFSDFPIHWVRQAPGKGLEWVGVISYDGNIKYYGDSVKGRFTISRDNAKNSLYLQMNSLRVEDTAVYYCARGGSSFDIWGQGTTVTVSS
VL: SYELTQPPSVSEAPRQRVTISCSGSTSNIGNNAVSWYQHLPGKAPKLLIYYNERLPSGVSDRFSGSKSGTSASLAISGLRSEDEADYYCAAWDDSLSGHVVFGGGTKLTVL
B4: Ab 27 (scFv, V domains shown)
VH: QVQLVQSGTEVKKPGASVKVSCKASGYSFTGSHLHWVRQAPGQGLEWMGWINPDSGVINYAQKFQGRVTLTRDTSISTAYMELSGLRSDDTAVYYCARDKAIGYVWALDYWGQGTLVTVSS
VL: QSALTQPPSVSGSPGQSVTISCTGTSSDVGTYNRVSWYQQPPGKAPKLMIYEVSNRPSGVSNRFSGSKSGNTASLTISGLQAEDEADYYCSSYTRTFTYVFGTGTKVTVL
B5: Ab 26 (scFv, V domains shown)
VH: QVQLVQSGGGLVQPGRSLRLSCAASGFTFDDYAMHWVRQVPGKGLEWVSGIDWNSGVIGYADSVKGRFTISRDNAKNSLYLQMNSLRAEDTALYYCAKDAYSYGFLGAFDIWGQGTMVTVSS
VL: LPVLTQPPSVSVAPGQTASITCGGDNIRTKGVHWYQQKPGQAPLLVIYYASDRPSGIPERFSGSSSGNTATLTISRVEAGDEADYYCQVWDSSSDLVVFGGGTTLTVL
B6: S1-RBD-R3-T1-E2 (Ab7) (scFv, V domains shown)
VH: B5 VH
VL: QPGLTQPPSVSVAPGQTARISCGGNNIGSKSVHWYQQKPGRAPVLVVYEDRGRPSGIPERFSGSNSGNTATLTVSRVEAGDEADYYCQVWDGDSDHYVFATGTKVSIL
B7: Ab_16 (scFv, V domains shown)
VH: QVQLVQSGGGVVQPGRSLRLSCAASGFTFSNYGMHWVRQAPGKGLEWVALIWERGSKKDYADSVKGRFTVSRDNSKNTLYLQMNSLRPEDTAVYFCAREGISMTGAEYFQHWGQGTLVTVSS
VL: QSVLTQPPSVSGSPGQRVTMSCTGSSSNIGAGYDVHWYQQVPGAAPRLLIYGTNNRPSGVPDRFSGSKSGTSASLTITGLQAEDEADYYCQSYDNSLTDPYVFGTGTKVTVL
B8: Ab 23 (scFv, V domains shown)
VH: EVQLVQSGAEVKKPGSSVKVSCRSSGGTFSTYGITWVRQAPGQGLEWMGRIIPSLGIPNYAQKFQGRVTITADTSVSTAWMELSSLESDDTAIYYCARENIDLATNDFWGQGTLVTVSS
VL: QSALTQPPSASGSPGQSVTISCTGTSRDIGAYGYVSWYQQVPGKAPKLIIYEVRNRPSGVSSRFSGSKSGNTASLTISGLQAEDEADYYCSSYTSSSTLDVVFGGGTKLTVL
B9: Ab_17 (scFv, V domains shown)
VH: QVQLVQSGGGVVQPGRSLRLSCAASGFTFDDYAMHWVRQVPGKGLEWVSGIDWNSGVIGYADSVKGRFTISRDNVKNSLYLQMNSLRTEDSALYYCAKDIGPGGSGSYYAFDIWGQGTTVTVSS
VL: QSALTQPASVSGSPGQSITISCTGTSSDVGGSKYVSWYQQHPGKAPKVMIYDVTKRPSGVPDRFSGSKSGNTASLTISGLQAEDEADYYCAAWDDSLNGVVFGGGTKLTVL
B10: Ab 21 (scFv, V domains shown)
VH: QVQLVQSGGGLVQPGGSLRLSCATSGFTFDDYAMHWVRQAPGKGLEWVSGISWNSGSIGYVDSVKGRFTISRDNRNNKVYLQMNNLRAEDTAVYYCARDWWGSIDHWGLGTLVTVSS
VL: QSALTQPRSVSGSPGQSVTISCTGTSSDVGGYDYVSWYQQHPGKAPKLIIYDVSKRPSGVPDRFSGSKSGNTASLTVSGLQAEDEADYYCSSYTSSSPVVFGGGTKLTVL
B11: S1-RBD-R3-T1-C7 Ab (Ab 29) (scFv, V domains shown)
VH: QVQLQQSGPGLVKPSQTLSLTCAISGDSVSSYSDAWNWIRQSPSRGLEWLGRTYYRSKWYNDYAVSVKSRITINPDTSKNQFSLQLSSVTPEDTAVYYCAREIVATTPFRNYYYGMDVWGQGTTVTVSS
VL: NFMLTQPHSVSESPGNTVTISCTRTSGSIASNYVQWYQQRPGSSPTTVIFQDKLRPSGVPDRFSGSIDSSSNSASLTISGLKTEDEADYYCQSYDSSSLWVFGGGTKLTVL
B12: Ab_19 (scFv, V domains shown)
VH: EVQLVESGAEVKKPGESLKISCKGSGYSFTSYWIGWVRQMPGKGLEWMGIIYPGDSDTRYSPSFQGQVTISADKSISTAYLQWSSLKASDTAMYYCARRGDLDAFDIWGQGTMVTVSS
VL: QPGLTQPPAASGTPGQRVTVSCSGASANIGSNAVSWFKQFPETAPRLLISGNTHRPSGVPDRVSGSKSGTSASLTISGLQSDDEADYYCAAWDDSLNGYVFGSGTKVTVL
B13: Ab_14 (scFv, V domains shown)
VH: QVQLQQSGPGLVKPSQTLSLTCAISGDSVSSNSAAWNWIRQSPARGLEWLGRTYYRSRWYNDYAISMKSRITINPDTSKNQFSLQLESVTPEDTAVYYCAREIRGFDYWGQGTLVTVSS
VL: QSVLTQPPSASGSPGQSVTISCTGTSSDVGAYNFVSWYQHHPGKAPKLIIYDFNKRPSGVPDRFSGSKSGNTASLTVSGLQADDEADYYCSSYAGSNNFDVVFGGGTKLTVL
B14: S1-R3-T1-C4 (Ab_8) (scFv, V domains shown)
VH: QVQLVQSGAEVKKPGSSVKVSCKASGGTFSSYAISWLRQAPGQGLEWMGWINPNSGGTNYAQKFQGRVTMTRDTSISTAYMELSRLRSDDTAVYYCARGSGGYYLGWGQGTLVTVSS
VL: QPGLTQPPSVSKGLRQTATLTCTGNSNNVGNQGAAWLQQHQGHPPKLLSYMNNNRPPGISERFSASRSGNTASLTITGLQPEDEADYYCSAWDSSLSRWVFGGGTKLSVL
B15: Ab 20 (scFv, V domains shown)
VH: QVQLVQSGGGSVKPGGSLRLSCAASGYRLSDYYMHWVRQAPGKGLEWVANIKQDGSEKYYVDSVKGRFTISRDNAKNSLYLQMNSLRAEDTAVYYCARVRGWSRGYFDYWGQGTLVTVSS
VL: NFMLTQPHSVSESPGKTVTISCTGSSGSIASNYVQWYQQRPGSAPTTVIYEDNQRPSGVPDRFSGSIDSSSNSASLLISGLKTEDEADYYCQSYDSSNHWVFGGGTKLTVL
B16: S1-RBD-R3-T1-F5 (Ab2-7) (scFv, V domains shown)
VH: QVTLKESGPTRVKPTQTLTLTCTFSGFSLSTTGVGVGWIRQPPGKALEWLALIYWNDDKRYSPSLKSRLTITKDTSKNQVVLTMTNMDPVDTATYYCARISGSGYFYPFDIWGQGTTVTVSS
VL: B15 VL with G24R, A44S, L77T, T83A, N98S, H99L
B17: Ab 28 (scFv, V domains shown)
VH: QVTLKESGPGLVNPSETLSLTCTVSGASISNSFWSWIRQSPGKGLEWIGYTSYSGNSIYNPSLKSRLTMSIDTSKNQLSLNLRSLTAADTAVYYCARREWIKGHFDYWGQGTLVTVSS
VL: B15 VL with S26G, L77T, H99P, W100V
B18: S1-RBD-R3-T1-B12 Ab (Ab_31) (scFv, V domains shown)
VH: QVQLVQSGAEVKKPGSSVKVSCKASGGTFSSYTISWVRQAPGQGLEWMGGIIPILGTPNYAQKFQDRVAITADKSTSTAYMELSSLRSEDTAVYYCAVGSGWYSGFDYWGQGTLVTVSS
VL: B15 VL with N53S, L77T, Y94F, D95H, S96N, H99P, W100V, V101I
B19: Ab 25 (scFv, V domains shown)
VH: QVQLVQSGGGLVQPGGSLRLSCAASGFTFSSYWMSWVRQAPGKGLEWVANIKQDGSEKYYVDSVKGRFTISRDNAKNSLYLQMNSLRAEDTAVYYCARGFYYYGAFDIWGQGTTVTVSS
VL: B15 VL with D68G, L77T
B20: RBD-R3-E1-G7 (Ab2-10) (scFv, V domains shown)
VH: EVQLVESGPGLVKPSETLSLTCTVSGGSISSYYWSWIRQPAGKGLEWIGRIYTSGSTNYNPSLKSRVTMSVDTSKNQFSLKLSSVTAADTAVYYCARDVGFGWFDRWGQGTLVTVSS
VL: B15 VL with G24R, A44S, L77T, K82T, Y94F, S97A, N98S, H99L
B21: Ab_13 (scFv, V domains shown)
VH: B16 VH with T10K, R11L, T32S, N56D, T72A, N78Y, T117M, S122A
VL: B15 VL with G24R, L77T, H99L
B22: RBD-R3-E1-B3 Ab (Ab_32) (scFv, V domains shown)
VH: QVQLVQSGAEVKKPGESLKISCKGSGYSFTSYWIGWVRQMPGKGLEWMGIIYPGDSDTRYSPSFQGQVTISADKSISTAYLQWSSLKASDTAMYYCARGWQWHDYWGQGTLVTVSS
VL: QTVVTQEPAVSVALGQTVRITCQGDSLRSYYASWYQQKPGQAPVLVVYDKDKRPSGIPDRFSGSTSGNTASLTITGAQAEDEADYYCNSRDRSDNHVVFGGGTKLTVL
B23: RBD-R3-T1-H3 (Ab_2) (scFv, V domains shown)
VH: EVQLVQSGAEVKKPGSSVKVSCKTSGYTFTTSGISWVRQAPGQGLEWMGWISAYNGNTNYAQKLQGRVTMTTDTSTSTAYMELRSLRSDDTAVYYCARDFHLYYGMDVWGKGTLVTVSS
VL: QSALTQPPSASGSPGQSVTISCTGTSSDVGAYNYVSWYQQHPGKAPKLLIYDVTKRPPGVPDRFSGSKSGNTASLTVSGLQAEDEADYYCAVWDDGLNGRVVFGGGTKLTVL

Target: WT Spike (SARS-CoV-2, UniProt P0DTC2 16-1213)

Row | Binder | Kd
1 | B1 | 6.58 pM
2 | B2 | 9.07 pM
3 | B3 | 1.02 pM
4 | B4 | 8.78 pM
5 | B5 | 11 pM
6 | B6 | 7 pM
7 | B7 | 11.8 pM
8 | B8 | 8.84 pM
9 | B9 | 6.35 pM
10 | B10 | 9.25 pM
11 | B11 | 149 pM
12 | B12 | 8.9 pM
13 | B13 | 8.22 pM
14 | B14 | 7.15 pM
15 | B15 | 9.01 pM
16 | B16 | 7.85 pM
17 | B17 | 8.9 pM
18 | B18 | < 1 pM
19 | B19 | 8.9 pM
20 | B20 | 5.65 pM
21 | B21 | 8.55 pM
22 | B22 | 6.32 pM
23 | B23 | 199 pM
